Laboratory results reported in patent US5888811A, “Corticotropin-releasing hormone receptor” (DuPont Pharmaceuticals Company, priority 1997, dated 1999).
Where no end group is shown, it is not given here.

How the values were obtained:
CRHR2 γ receptor = target: T1, CRHR2 γ receptor (Homo sapiens, UniProt Q13324, DEL106-106); experiment: Displacement of 125I-tyr-0-sauvagine from membranes of HEK293EBNA cells expressing CRHR2γ; format: binding; conditions: 60-70 pM 125I-tyr-0-sauvagine; 23° C., 4 hours; read-out: approximate IC50 for displacement of 125I-tyr-0-sauvagine
T1 construct: the full length CRHR2 γ cDNA (original cDNA library clone) was subcloned; expressed in transfected cells; membranes
T1 sequence (Q13324 with tags, fused parts or gaps isoform Q13324-3 DEL92-92): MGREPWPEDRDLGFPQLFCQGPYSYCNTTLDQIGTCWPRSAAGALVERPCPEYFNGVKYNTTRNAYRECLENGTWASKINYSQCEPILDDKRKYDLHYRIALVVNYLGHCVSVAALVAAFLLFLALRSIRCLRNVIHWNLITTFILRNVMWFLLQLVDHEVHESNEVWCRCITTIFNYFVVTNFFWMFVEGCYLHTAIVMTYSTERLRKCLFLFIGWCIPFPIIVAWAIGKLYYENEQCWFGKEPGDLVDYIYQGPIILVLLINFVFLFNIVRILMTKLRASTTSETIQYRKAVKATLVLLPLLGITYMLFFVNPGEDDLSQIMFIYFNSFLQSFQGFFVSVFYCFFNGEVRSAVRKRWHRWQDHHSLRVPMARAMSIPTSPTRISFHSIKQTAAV
Experimental: Buffer consisted of 50 mM HEPES, 10 mM MgCI2, 2 mM EGTA, and 1 μg/ml each of aprotinin, leupeptin, and pepstatin at a final pH of 7.0. Bacitracin at 0.15 mM and ovalbumin at 0.1% were added to the buffer on the day of use. Assays were performed at 23° C. for 4 hours in a final volume of 200 μl in 96-well microtiter plates. Reactions were initiated by the addition of 10-20 μg of membrane homogenates and terminated by rapid filtration through presoaked (0.3% polyethyleneimine) glass fiber filters using an Inotech 96-well harvester. The filters were washed quickly 3×with ice-cold solution (PBS+0.01% TritonX-100, pH7.2), dried briefly, then placed into polystyrene tubes and counted on an Isomedic 10/880 γ counter (counting efficiency ~80%). Data was analyzed by nonlinear regression analysis using the computer program MacLigand. Determinations were made from at least 3 separate experiments.

CRHR2 γ = target: T2, CRHR2 γ (Homo sapiens, UniProt Q13324, DEL106-106); experiment: Whole cell adenylate cyclase assay (cAMP accumulation) in HEK293EBNA cells expressing CRHR2γ; format: cell-based; conditions: rank order only; summary statement
T2 sequence (Q13324 with tags, fused parts or gaps DEL106-106): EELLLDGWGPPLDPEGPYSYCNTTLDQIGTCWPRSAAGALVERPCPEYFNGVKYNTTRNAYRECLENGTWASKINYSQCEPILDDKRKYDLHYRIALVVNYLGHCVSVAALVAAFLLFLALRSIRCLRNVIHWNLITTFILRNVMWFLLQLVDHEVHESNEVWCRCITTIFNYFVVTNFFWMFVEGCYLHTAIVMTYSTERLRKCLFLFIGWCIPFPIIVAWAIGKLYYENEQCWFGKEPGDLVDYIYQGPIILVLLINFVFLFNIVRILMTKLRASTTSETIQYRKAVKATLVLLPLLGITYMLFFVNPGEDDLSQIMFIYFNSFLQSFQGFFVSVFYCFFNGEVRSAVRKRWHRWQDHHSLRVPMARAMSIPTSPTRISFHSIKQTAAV
Experimental: HEK293EBNA cells expressing the CRHR2 γ were incubated in DMEM with low serum (0.1% FBS) at 37° C., 5% CO2 for at least 2 hrs before the addition of isobytylmethoxyxanthine (IBMX) to the media at a final concentration of 0.1 mM. The cells were incubated with the IBMX for 30 minutes; test peptides or compounds were then added to the media and incubated therein for 25-30 min. The media was then aspirated from the cells and replaced with ice cold sodium acetate buffer containing 1 mM IBMX. The cells were then disrupted by a freeze-thaw, followed by sonication. Supernatants were assayed for cAMP levels with PerSeptive Diagnostics EIA Kit.

Row | Substance | IC50 (CRHR2 γ receptor) | potency of stimulation of adenylate cyclase activity (rank order), measured by intracellular cAMP accumulation (CRHR2 γ)
1 | urocortin: mammalian neuropeptide related to fish urotensin I and to corticotropin-releasing factor (DNPSLSIDLTFHLLRTLLELARTQSQRERAEQNRIIFDSV; ends and bridges not checked; UniProt P55089 83-122, looked up) | ~2 nM | –
2 | r/h CRH: rat/human corticotropin-releasing hormone, agonist peptide | – | sauvagine>urotensin>rat/human CRH
